Target: T1, human SNRNP200^395-2136 (truncated SNRNP200 lacking the first 394 residues) (human, UniProt O75643 395-2136)
T1 construct: In the co-purification with PRPF8^RH-JM the complex was captured on Ni-NTA and the tag was then cut with TEV protease; also called SNRNP200 helicase; source: modified pFL vector; purified, obtained as described previously (Santos et al., 2012); also co-produced with PRPF8^RH-JM in Sf9 cells (baculovirus)
Assay: SEC; analytical SEC, Superdex 200 Increase PC3.2/30, 20 mM Tris-HCl pH 7.5, 250 mM NaCl, 0.5 mM DTT; proteins mixed in equimolar ratios, 30 min on ice; fractions analyzed by SDS-PAGE
Details: both partners purified

T1 sequence (O75643 395-2136): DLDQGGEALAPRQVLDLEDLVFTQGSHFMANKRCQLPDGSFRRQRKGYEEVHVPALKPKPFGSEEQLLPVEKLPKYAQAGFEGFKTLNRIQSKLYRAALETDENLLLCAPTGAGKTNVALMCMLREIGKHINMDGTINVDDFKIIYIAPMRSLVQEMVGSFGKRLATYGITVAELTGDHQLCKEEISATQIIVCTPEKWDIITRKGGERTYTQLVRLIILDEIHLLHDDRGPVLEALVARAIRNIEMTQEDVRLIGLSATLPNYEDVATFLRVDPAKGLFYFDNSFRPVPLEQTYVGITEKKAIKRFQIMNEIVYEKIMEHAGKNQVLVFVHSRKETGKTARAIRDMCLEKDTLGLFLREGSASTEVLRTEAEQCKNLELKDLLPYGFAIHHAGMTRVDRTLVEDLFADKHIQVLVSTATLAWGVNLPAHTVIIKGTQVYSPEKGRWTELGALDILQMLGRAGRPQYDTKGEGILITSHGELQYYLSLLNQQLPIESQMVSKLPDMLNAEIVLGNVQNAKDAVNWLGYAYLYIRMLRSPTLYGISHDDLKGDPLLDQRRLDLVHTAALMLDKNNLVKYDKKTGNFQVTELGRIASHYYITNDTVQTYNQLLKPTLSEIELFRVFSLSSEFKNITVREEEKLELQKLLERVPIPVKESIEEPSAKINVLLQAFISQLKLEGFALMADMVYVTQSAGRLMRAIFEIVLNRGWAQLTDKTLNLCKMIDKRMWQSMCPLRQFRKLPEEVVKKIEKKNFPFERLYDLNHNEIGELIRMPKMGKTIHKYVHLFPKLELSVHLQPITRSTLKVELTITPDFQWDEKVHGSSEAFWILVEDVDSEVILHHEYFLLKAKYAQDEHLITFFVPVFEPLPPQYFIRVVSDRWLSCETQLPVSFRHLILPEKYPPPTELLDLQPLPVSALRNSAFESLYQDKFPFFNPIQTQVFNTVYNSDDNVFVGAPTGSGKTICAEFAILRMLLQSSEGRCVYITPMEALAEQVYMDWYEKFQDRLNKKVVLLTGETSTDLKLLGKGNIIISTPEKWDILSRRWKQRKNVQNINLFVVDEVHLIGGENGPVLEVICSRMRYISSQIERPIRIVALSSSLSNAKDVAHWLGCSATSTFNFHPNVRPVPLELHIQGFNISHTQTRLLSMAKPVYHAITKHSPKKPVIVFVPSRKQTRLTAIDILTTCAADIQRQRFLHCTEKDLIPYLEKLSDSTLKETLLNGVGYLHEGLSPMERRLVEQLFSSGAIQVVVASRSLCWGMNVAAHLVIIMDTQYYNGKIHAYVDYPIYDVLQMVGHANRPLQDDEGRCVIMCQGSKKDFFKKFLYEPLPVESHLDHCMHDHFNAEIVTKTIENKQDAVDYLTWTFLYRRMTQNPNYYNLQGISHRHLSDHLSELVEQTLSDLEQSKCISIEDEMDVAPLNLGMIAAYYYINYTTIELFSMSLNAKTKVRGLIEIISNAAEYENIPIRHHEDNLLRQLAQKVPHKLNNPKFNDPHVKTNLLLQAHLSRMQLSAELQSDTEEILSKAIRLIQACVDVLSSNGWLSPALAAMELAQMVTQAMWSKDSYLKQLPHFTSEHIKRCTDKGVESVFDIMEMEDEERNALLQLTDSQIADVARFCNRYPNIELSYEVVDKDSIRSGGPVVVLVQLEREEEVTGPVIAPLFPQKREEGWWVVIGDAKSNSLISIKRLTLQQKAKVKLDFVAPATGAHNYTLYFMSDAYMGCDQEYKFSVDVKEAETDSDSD

Row | binding result | Binder
1 | binds | human PRPF8 Jab1/MPN-like domain (PRPF8^JM, residues 2064-2335) (domain or fragment, human PRPF8, Jab1/MPN-like domain, residues 2064-2335; The GST tag is TEV-cleavable; also called PRPF8 JM domain; source: pET-M11 plasmid, codon-optimized synthetic gene; purified, obtained as described previously (Mozaffari-Jovin et al., 2013)) not shown
2 | binds | human PRPF8 C-terminal fragment encompassing the RH and JM domains (PRPF8^RH-JM, residues 1760-2335) (domain or fragment, human PRPF8, C-terminal fragment with the RH and JM domains, residues 1760-2335; no tag is stated for this chain (pIDK donor vector); also called PRPF8^RM-JM; prpf8^1760–2335) not shown
